B1: Sl-caspase5-CARD (caspase recruitment domain of Spodoptera litura caspase-5, 1-132aa) (domain or fragment, UniProt R4I520 1-132, looked up)
chain: MQREHRDAIQSNFSSLVERTDLDSVVTALYEKGVFSEQMIEPYRNNSELERDRKRRLYMDVTRRGPHAFAHLVDTLGELGYWDLARDLDPDSPFSFSSQQRSHPIPQPKPADNDNFRSLSTSNRPRAEPNRI
notes: Sl-caspase-5 of Spodoptera litura (a homologue of mammalian caspase-9; Dronc), GenBank JQ768051; caspase recruitment domain, residues 1-132; Cloned with Nde I and Xho I in pET-22b; also called caspase-5-CARD domain
B2: Sl-Apaf-1-CARD (caspase recruitment domain of Spodoptera litura apoptotic protease activating factor-1, 1-88aa) (domain or fragment, UniProt A0A7T6ZKB7 1-88, looked up)
chain: MDKHKRLLLQKYQQDIIDDLDVAYVYDELFAKHVISAEEVDRMFSLTTRIDQTRFLLDSLIRNGTNGTYQVFVDSLQKDYGWLWEKLA
notes: caspase recruitment domain, residues 1-88; Cloned with Nde I and Xho I in pET-22b; also called Sl-Af88; Sl-Apaf-1-CARD domain protein fragment

What was measured:
[1] = target: B2; experiment: ITC; Sl-Apaf-1-CARD at 50 µM, Sl-caspase-5-CARD at 450 µM; 10 mM HEPES, 100 mM NaCl, 2 mM DTT, pH 7.4; 20 °C; 20 injections; VP-ITC; which protein was in the cell is not said; conditions: both partners purified
[2] = target: B1; experiment: as above; conditions: both partners purified

dH [1] [kcal/mol] | stoichiometry N [1] | Ka [2] [M⁻¹] | Binder
-15.5 | 1 |  | B1
 |  | 1.28e+06 | B2
